Data on one substance can be found in US6703198.

The target of this assay is full-length murine Notch1 expressed on 32D myeloid progenitor cells (murine) (UniProt Q01705). The assay can be described thus: cell-based or functional assay.
Chain of full-length murine Notch1 expressed on 32D myeloid progenitor cells (murine) (Q01705 19-2531): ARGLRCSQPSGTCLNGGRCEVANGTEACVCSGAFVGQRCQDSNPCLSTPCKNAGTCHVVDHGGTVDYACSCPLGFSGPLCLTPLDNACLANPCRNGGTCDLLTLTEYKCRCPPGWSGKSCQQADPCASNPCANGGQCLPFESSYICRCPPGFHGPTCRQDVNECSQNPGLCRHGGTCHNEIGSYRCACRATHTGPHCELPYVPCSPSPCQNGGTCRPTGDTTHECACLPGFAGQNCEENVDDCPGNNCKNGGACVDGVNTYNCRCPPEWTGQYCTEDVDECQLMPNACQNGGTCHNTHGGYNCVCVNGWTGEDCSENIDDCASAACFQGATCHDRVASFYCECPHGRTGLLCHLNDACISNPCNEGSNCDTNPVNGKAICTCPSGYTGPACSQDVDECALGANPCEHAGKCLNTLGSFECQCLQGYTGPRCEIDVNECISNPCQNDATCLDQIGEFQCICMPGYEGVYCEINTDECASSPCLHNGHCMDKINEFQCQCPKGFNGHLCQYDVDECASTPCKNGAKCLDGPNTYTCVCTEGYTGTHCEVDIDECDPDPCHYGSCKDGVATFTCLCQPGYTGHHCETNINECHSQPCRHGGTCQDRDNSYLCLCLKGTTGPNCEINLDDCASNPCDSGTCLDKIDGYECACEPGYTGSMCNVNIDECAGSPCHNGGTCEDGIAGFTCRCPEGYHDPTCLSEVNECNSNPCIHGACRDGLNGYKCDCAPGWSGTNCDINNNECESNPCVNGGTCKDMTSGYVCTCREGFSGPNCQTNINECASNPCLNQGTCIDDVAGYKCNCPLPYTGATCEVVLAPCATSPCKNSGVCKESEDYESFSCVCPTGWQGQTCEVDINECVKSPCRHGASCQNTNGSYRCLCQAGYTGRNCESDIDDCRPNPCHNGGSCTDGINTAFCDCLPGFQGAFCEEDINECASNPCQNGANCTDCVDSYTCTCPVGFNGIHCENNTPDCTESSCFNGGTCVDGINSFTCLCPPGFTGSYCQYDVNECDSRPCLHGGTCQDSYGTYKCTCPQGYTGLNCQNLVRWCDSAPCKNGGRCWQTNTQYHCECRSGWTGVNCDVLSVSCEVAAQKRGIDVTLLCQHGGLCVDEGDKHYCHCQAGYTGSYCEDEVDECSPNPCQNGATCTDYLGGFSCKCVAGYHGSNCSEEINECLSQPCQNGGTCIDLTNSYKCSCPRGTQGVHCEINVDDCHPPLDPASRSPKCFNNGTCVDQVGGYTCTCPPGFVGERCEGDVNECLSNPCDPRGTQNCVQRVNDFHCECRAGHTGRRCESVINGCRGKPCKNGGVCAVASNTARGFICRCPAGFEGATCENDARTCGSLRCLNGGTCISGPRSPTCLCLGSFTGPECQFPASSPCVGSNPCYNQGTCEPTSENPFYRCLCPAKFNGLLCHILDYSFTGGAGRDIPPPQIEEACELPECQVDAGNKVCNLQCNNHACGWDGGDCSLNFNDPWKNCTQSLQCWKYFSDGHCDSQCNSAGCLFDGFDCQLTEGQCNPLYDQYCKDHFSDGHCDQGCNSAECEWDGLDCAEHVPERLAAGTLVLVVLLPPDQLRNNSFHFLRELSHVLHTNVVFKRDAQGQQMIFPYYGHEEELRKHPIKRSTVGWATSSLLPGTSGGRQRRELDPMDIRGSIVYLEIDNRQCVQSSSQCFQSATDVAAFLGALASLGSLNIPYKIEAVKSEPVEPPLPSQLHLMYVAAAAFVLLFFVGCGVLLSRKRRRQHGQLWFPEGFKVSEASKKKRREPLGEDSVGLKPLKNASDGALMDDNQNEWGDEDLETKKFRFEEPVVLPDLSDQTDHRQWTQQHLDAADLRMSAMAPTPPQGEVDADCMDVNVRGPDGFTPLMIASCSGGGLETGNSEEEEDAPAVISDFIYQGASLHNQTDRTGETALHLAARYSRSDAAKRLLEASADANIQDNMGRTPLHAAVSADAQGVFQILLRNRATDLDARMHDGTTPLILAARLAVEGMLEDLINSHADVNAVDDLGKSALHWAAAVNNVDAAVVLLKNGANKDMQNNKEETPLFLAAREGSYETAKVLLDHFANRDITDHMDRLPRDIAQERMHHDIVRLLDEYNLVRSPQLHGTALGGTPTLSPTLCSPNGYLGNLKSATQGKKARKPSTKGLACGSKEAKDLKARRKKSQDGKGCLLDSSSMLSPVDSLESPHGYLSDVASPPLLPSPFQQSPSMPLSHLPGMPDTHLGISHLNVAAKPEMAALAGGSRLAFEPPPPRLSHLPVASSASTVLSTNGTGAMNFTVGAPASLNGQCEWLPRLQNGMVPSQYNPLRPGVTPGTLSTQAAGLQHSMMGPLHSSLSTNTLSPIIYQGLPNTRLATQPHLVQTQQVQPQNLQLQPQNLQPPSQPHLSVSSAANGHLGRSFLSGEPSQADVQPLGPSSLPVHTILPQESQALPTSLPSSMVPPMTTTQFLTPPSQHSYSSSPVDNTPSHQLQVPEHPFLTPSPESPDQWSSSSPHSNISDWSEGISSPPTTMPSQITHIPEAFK

As for “human JAGGED1 (hJAGGED1) expressed on HS-27a human bone marrow stromal cells (from UniProt P78504 22-1218) (ligand)”, the Replating efficiency (FL Notch1 32D clones after 6 days on HS-27a with G-CSF) is 190%, the percent of full-length Notch1-expressing 32D cells mature by day 6 on HS-27a in G-CSF came to 20% and the percent of full-length Notch1-expressing 32D cells remaining undifferentiated by day 6 on HS-27a in G-CSF was found to be 40%.
